Laboratory results reported in publication doi:10.1101/291294 (bioRxiv, 2018).

B1: GST-tagged human GABARAP (natural protein)
chain: MKFVYKEEHPFEKRRSEGEKIRKKYPDRVPVIVEKAPKARIGDLDKKKYLVPSDLTVGQFYFLIRKRIHLRAEDALFFFVNNVIPPTSATMGQLYQEHHEEDFFLYIAYSDESVYGL

Columns and labels:
[1] = biological target: B1; assay: pull-down
[2] = biological target: Recombinant WT XIAP protein (human, UniProt P98170 1-497); assay: pull-down
Recombinant WT XIAP protein, sequence (P98170 whole entry): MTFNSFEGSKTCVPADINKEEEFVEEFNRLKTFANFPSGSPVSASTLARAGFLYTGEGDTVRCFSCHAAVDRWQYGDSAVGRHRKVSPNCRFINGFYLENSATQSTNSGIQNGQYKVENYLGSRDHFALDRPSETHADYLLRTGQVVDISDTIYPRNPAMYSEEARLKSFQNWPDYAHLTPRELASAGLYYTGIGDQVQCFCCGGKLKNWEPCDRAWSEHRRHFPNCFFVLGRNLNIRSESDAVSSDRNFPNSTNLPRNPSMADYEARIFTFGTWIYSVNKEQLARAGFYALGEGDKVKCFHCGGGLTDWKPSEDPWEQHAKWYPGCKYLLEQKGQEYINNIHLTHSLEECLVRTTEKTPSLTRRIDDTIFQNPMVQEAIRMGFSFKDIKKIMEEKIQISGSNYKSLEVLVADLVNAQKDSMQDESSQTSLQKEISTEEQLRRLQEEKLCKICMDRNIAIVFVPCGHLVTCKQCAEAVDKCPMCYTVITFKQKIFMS

Binder | binding result [1] | binding result [2]
EDEWVNVQY [GIM-containing peptide EDEWVNVQY] | binds | –
B1 | – | binds
